Data on 1 molecule can be found in US20220031813A1, “INHIBITOR OF EXTRACELLULAR TRAP FORMATION IN LEUKOCYTES” (priority 2013, published 2022).

One series relates to human neutrophils. Briefly: Specificity experiment: inhibition of NETs formation by DNA concentration in the culture supernatant. The series is classed as cell-based. As to conditions: n=3, p<0.01, FIG. 10. Here is the method:
About 1 hour after the isolation of the neutrophils described in “1. Method of isolating human neutrophils” in Example 2, the neutrophils were pre-treated. On an 8-well microslide (Cat. No. ib 80826 Ibidi (registered trademark)), the neutrophils were seeded in 400 μl of culture DMEM+2% human serum Alb (serum human albumin; Product No. A9080 Sigma+4 mM L-glutamine) at a rate of about 1.0×10^5 cells/well, and stimulated with PMA (final concentration: 25 nM, stock: 10 mM in DMSO, Sigma Prod No. P8139). At thirty minutes before the stimulation, and at every one hour or every two hours after the stimulation, 200 μg/ml of human lactoferrin (stock: 100 mg/ml, 200 μl; Cat. No. SIGL6793, SIGMA) was added to perform inhibition [FIG. 2].
The culture supernatant was recovered and centrifuged at 200×g for 10 minutes, and the supernatant was transferred to a new microscopic centrifuge tube. The DNA amount was measured by use of Picogreen dsDNA assay reagent (P11496 Invitrogen) in accordance with an accompanying protocol. Treatment with human lactoferrin at one hour and two hours after the stimulation was a similar effect to the prior pre-treatment, the DNA concentration in the culture supernatant decreased, resulting in suppression of the release of the DNAs by the NETs [FIG. 2]. […]

The conditions of series [1]: bovine proteins; cited from earlier work.

B1: angiogenin: bovine milk protein, known as a tumor angiogenesis factor, eluted from SP-Sepharose column (protein, UniProt P10152 24-148, looked up)
Angiogenin-1: AQDDYRYIHFLTQHYDAKPKGRNDEYCFNMMKNRRLTRPCKDRNTFIHGNKNDIKAICEDRNGQPYRGDLRISKSEFQITICKHKGGSSRPPCRYGATEDSRVIVVGCENGLPVHFDESFITPRH
In the case of B1, the “inhibition of the formation of the NETs” value with human neutrophils was “Neither lactoperoxidase nor angiogenin inhibited”. Besides, the Isoelectric point in series [1] was 9.5.
